This note sets out measurements from patent publication US20230109780A1 (XIYUAN ANJIAN MEDICINE SHANGHAI, published 2023).

As a reminder, the EC50 is the concentration that produces a half-maximal response.

Assay [1] concerns the target T1, recombinant human NGF protein (human, UniProt P01138 122-241). The experiment in a line: cell-based or functional assay.
Assay [2] has as its target T2, human NT-3 (human, UniProt P20783 139-257).
T2 construct: Bought protein; also called Neurotrophic factor-3
T2 sequence (looked up): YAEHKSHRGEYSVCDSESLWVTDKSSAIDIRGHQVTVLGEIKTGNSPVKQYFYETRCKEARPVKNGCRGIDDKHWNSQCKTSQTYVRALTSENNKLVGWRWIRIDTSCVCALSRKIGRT
Nature of the assay: ELISA, plate coated with human NT-3 (50 ng per well), OD450. How it is done:
Each well of a 96-well microtiter plate was coated with 50 ng of human NGF (Beijing Yiqiao Shenzhou Technology Co., Ltd., 11050-HNAC), human BDNF (Beijing Yiqiao Shenzhou Technology Co., Ltd., 50240-MNAS), human NT-3 (Beijing Yiqiao Shenzhou Technology Co., Ltd., 10286-HNAE), or human NT-4 (Alomone, N-270). The bindings of the murine anti-NGF antibodies to human NGF and three homo-family proteins were detected according to the method described in Example 2.
The binding of the humanized anti-NGF antibody to human NGF and to three homo-family proteins was detected according to the ELISA method described in Example 6A.
A general note: An ELISA detects its analyte on a solid surface through an enzyme-linked reagent.

Assay [3] addresses T3, human BDNF (human, UniProt P23560 129-247).
T3 construct: Bought protein; also called Brain-Derived Neurotrophic Factor
T3 sequence (looked up): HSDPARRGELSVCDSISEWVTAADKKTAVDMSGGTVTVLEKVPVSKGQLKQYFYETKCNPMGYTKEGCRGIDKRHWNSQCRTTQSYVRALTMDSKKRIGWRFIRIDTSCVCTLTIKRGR
The experiment in a line: ELISA, plate coated with human BDNF (50 ng per well), OD450.

Assay [4] has as its target T1, recombinant human NGF protein. Nature of the assay: ELISA, human NGF coated. The method, then: The affinity and specificity of humanized antibody were investigated by using human NGF as an antigen (Beijing Yiqiao Shenzhou Technology Co., Ltd., 11050-HNAC). NGF was diluted with […] coating solution (PBS), and each well of 96-well microtiter plate was coated with 50 ng, after washing and blocking, and then added with serially diluted antibodies, and incubated at room temperature for 1 hour. After washing three times, HRP-conjugated donkey anti-human IgG antibody (Biolegend) was added and reacted at room temperature for 1 hour. After washing three times, tetramethylbenzidine (TMB, Biolegend) was added for color development. 1M HC1 was […] used to terminate the color development, and the absorbance values were read at 450 nm with a microplate reader.

Assay [5] has as its target T4, human NT-4 (human, UniProt P34130 81-210).
T4 construct: Bought protein; also called Neurotrophic factor-4
T4 sequence (looked up): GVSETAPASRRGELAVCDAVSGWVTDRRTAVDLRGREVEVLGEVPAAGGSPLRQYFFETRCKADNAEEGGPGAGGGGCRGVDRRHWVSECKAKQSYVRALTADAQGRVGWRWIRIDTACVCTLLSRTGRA
The experiment in a line: ELISA, plate coated with human NT-4 (50 ng per well), OD450.

T1 sequence (P01138 122-241 limits assumed): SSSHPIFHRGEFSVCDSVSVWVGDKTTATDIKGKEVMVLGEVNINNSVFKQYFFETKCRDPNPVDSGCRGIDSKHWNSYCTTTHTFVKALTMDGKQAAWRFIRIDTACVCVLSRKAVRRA

B1: humanized anti-NGF antibody 138E12-02 (antibody, V domains shown)
VH: QVQLQESGPGLVKPSETLSLTCTVSGFSLTGYGVNWIRQPPGKGLEWLGMIWFDGSTDYNSALKSRLTISKDNSKSQVSLKLSSVTAADTAVYYCAREGYYYGTTYYFDYWGQGTTVTVSS
VL: DIQMTQSPSSLSASVGDRVTITCRASQDISNYLNWYQQKPGKAPKLLIYYTSRLHSGVPSRFSGSGSGTDYTLTISSLQPEDFATYFCQQGNTLPRTFGGGTKVEIK
notes: Humanized antibody expressed in CHO cells
B1: in assay [1], the “IC50, inhibition of NGF-induced proliferation of TF-1 cell” value (“IC50, inhibition” for short) stood at 0.064 nM. The binding result in assay [2], in assay [3] and in assay [5] was “no binding (tested: 66.67 nM)” each time. In addition, the EC50 in assay [4] came to 0.042 nM.

B2: humanized anti-NGF antibody 138E12-01 (antibody, V domains shown)
VH: QVQLQESGPGLVKPSETLSLTCTVSGFSLTGYGVNWIRQPPGKGLEWIGMIWFDGSTDYNSALKSRVTISKDNSKSQVSLKLSSVTAADTAVYYCAREGYYYGTTYYFDYWGQGTTVTVSS
VL: DIQMTQSPSSLSASVGDRVTITCRASQDISNYLNWYQQKPGKAPKLLIYYTSRLHSGVPSRFSGSGSGTDYTLTISSLQPEDFATYFCQQGNTLPRTFGGGTKVEIK
notes: as for B1
Regarding B2, the “IC50, inhibition” value in assay [1] is 0.03 nM. The binding result in assay [2], in assay [3] and in assay [5] was “no binding (tested: 66.67 nM)” each time. Besides, the EC50 in assay [4] came to 0.0403 nM.

B3: humanized anti-NGF antibody 138E12-03 (antibody, V domains shown)
VH: QVQLQESGPGLVKPSETLSLTCTVSGFSLTGYGVNWIRQPPGKGLEWLGMIWFEGSTDYNSALKSRLTISKDNSKSQVSLKLSSVTAADTAVYYCAREGYYYGTTYYFDYWGQGTTVTVSS
VL: DIQMTQSPSSLSASVGDRVTITCRASQDISNYLNWYQQKPGKAPKLLIYYTSRLHSGVPSRFSGSGSGTDYTLTISSLQPEDFATYFCQQGNTLPRTFGGGTKVEIK
Consider B3, for which, in assay [1], the “IC50, inhibition” value was 0.13 nM. The binding result in assay [2], in assay [3] and in assay [5] was “no binding (tested: 66.67 nM)” throughout. For the same molecule, the EC50 in assay [4] is 0.0392 nM.

B4: humanized anti-NGF antibody 138E12-06 (antibody, V domains shown)
VH: QVQLQESGPGLVKPSETLSLTCTVSGFSLTGYGVNWIRQPPGKGLEWLGMIWFDGSTDYNTALKSRLTISKDNSKSQVSLKLSSVTAADTAVYYCAREGYYYGTTYYFDYWGQGTTVTVSS
VL: DIQMTQSPSSLSASVGDRVTITCRASQDISNYLNWYQQKPGKAPKLLIYYTSRLHSGVPSRFSGSGSGTDYTLTISSLQPEDFATYFCQQGNTLPRTFGGGTKVEIK
Take B4: the “IC50, inhibition” value in assay [1] was determined as 0.125 nM. The binding result in assay [2], in assay [3] and in assay [5] was “no binding (tested: 66.67 nM)” each time. Further, the concentration giving a half-maximal response (EC50) in assay [4] was determined as 0.05 nM.

B5: humanized anti-NGF antibody 138E12-09 (antibody, V domains shown)
VH: QVQLQESGPGLVKPSETLSLTCTVSGFSLTGYGVNWIRQPPGKGLEWIGMIWFDGSTDYQSALKSRVTISKDNSKSQVSLKLSSVTAADTAVYYCAREGYYYGTTYYFDYWGQGTTVTVSS
VL: DIQMTQSPSSLSASVGDRVTITCRASQDISNYLNWYQQKPGKAPKLLIYYTSRLHSGVPSRFSGSGSGTDYTLTISSLQPEDFATYFCQQGNTLPRTFGGGTKVEIK
On to B5, for which, in assay [1], the “IC50, inhibition” value was 0.035 nM. For the same molecule, the binding result in assay [2], in assay [3] and in assay [5] was “no binding (tested: 66.67 nM)” each time. Also, in assay [4], the EC50 came to 0.027 nM.

B6: humanized anti-NGF antibody 138E12-10 (antibody, V domains shown)
VH: QVQLQESGPGLVKPSETLSLTCTVSGFSLTGYGVNWIRQPPGKGLEWIGMIWFEGSTDYQSALKSRVTISKDNSKSQVSLKLSSVTAADTAVYYCAREGYYYGTTYYFDYWGQGTTVTVSS
VL: DIQMTQSPSSLSASVGDRVTITCRASQDISNYLNWYQQKPGKAPKLLIYYTSRLHSGVPSRFSGSGSGTDYTLTISSLQPEDFATYFCQQGNTLPRTFGGGTKVEIK
Consider B6, for which the “IC50, inhibition” value in assay [1] was 0.031 nM. Moreover, the binding result in assay [2], in assay [3] and in assay [5] was “no binding (tested: 66.67 nM)” throughout. Besides, the EC50 in assay [4] was found to be 0.0184 nM.

B7: humanized anti-NGF antibody 138E12-08 (antibody, V domains shown)
VH: QVQLQESGPGLVKPSETLSLTCTVSGFSLTGYGVNWIRQPPGKGLEWIGMIWFEGSTDYNSALKSRVTISKDNSKSQVSLKLSSVTAADTAVYYCAREGYYYGTTYYFDYWGQGTTVTVSS
VL: DIQMTQSPSSLSASVGDRVTITCRASQDISNYLNWYQQKPGKAPKLLIYYTSRLHSGVPSRFSGSGSGTDYTLTISSLQPEDFATYFCQQGNTLPRTFGGGTKVEIK
For the molecule B7, the “IC50, inhibition” value in assay [1] amounted to 0.067 nM. The binding result in assay [2], in assay [3] and in assay [5] was “no binding (tested: 66.67 nM)” in each case. Besides, the EC50 in assay [4] is 0.0253 nM.

B8: humanized anti-NGF antibody 138E12-05 (antibody, V domains shown)
VH: QVQLQESGPGLVKPSETLSLTCTVSGFSLTGYGVNWIRQPPGKGLEWLGMIWFDGSTDYQSALKSRLTISKDNSKSQVSLKLSSVTAADTAVYYCAREGYYYGTTYYFDYWGQGTTVTVSS
VL: DIQMTQSPSSLSASVGDRVTITCRASQDISNYLNWYQQKPGKAPKLLIYYTSRLHSGVPSRFSGSGSGTDYTLTISSLQPEDFATYFCQQGNTLPRTFGGGTKVEIK
With B8, in assay [1], the “IC50, inhibition” value worked out at 0.136 nM. Further, the binding result in assay [2], in assay [3] and in assay [5] was “no binding (tested: 66.67 nM)” each time. For the same molecule, the EC50 in assay [4] came out at 0.0634 nM.

B9: humanized anti-NGF antibody 138E12-04 (antibody, V domains shown)
VH: QVQLQESGPGLVKPSETLSLTCTVSGFSLTGYGVNWIRQPPGKGLEWLGMIWFDASTDYNSALKSRLTISKDNSKSQVSLKLSSVTAADTAVYYCAREGYYYGTTYYFDYWGQGTTVTVSS
VL: DIQMTQSPSSLSASVGDRVTITCRASQDISNYLNWYQQKPGKAPKLLIYYTSRLHSGVPSRFSGSGSGTDYTLTISSLQPEDFATYFCQQGNTLPRTFGGGTKVEIK
As to B9, the “IC50, inhibition” value in assay [1] was 0.112 nM. For the same molecule, the binding result in assay [2], in assay [3] and in assay [5] was “no binding (tested: 66.67 nM)” throughout. For the same molecule, the EC50 in assay [4] came to 0.057 nM.

B10: humanized anti-NGF antibody 138E12-07 (antibody, V domains shown)
VH: QVQLQESGPGLVKPSETLSLTCTVSGFSLTGYGVNWIRQPPGKGLEWIGMIWFEGSTDYQSALKSRVTISVDTSKNQFSLKLSSVTAADTAVYYCAREGYYYGTTYYFDYWGQGTTVTVSS
VL: DIQMTQSPSSLSASVGDRVTITCRASQDISNYLNWYQQKPGKAPKLLIYYTSRLHSGVPSRFSGSGSGTDYTLTISSLQPEDFATYFCQQGNTLPRTFGGGTKVEIK
As for B10, in assay [1], the “IC50, inhibition” value turned out to be 0.214 nM. Further, the binding result in assay [2], in assay [3] and in assay [5] was “no binding (tested: 66.67 nM)” throughout. The EC50 in assay [4] was determined as 0.034 nM.
